Biological target: T1, recombinant MERS-CoV S RBD protein (MERS-CoV, strain ; EMC/2012 …, UniProt K0BRG7)
T1 construct: source: bought: Sino Biological Inc
Experiment: ELISA
Details: one partner purified

| Binder | binding result |
| --- | --- |
| C-8-2 scFv displayed on phage (scFv, V domains shown, also called C-8-2 clone) VH: EVQLVQSGAEVKKPGSSVKVSCKASGGTESSEAISWVRQAPGQGLEWMGGIIPFFGTANYAQKFQGRVTITADESTSTAYMELSSLRSEDTAVYYCARDGRKDYYGSGSYLHYYGMDVWGQGTTVTVSS VL: ELVMTQSPLSLPVTPGEPASISCRSSQSLLHSNGYNYLDWYLQRPGQSPQLLIYLGSNRASGVPDRFSGSGSGTDFTLKIGRVEAEDVGIYYCMQALQTPLTFGGGTKVEIK | binds |
| C-8-2-4B-10D scFv displayed on phage (scFv, V domains shown) VH: EVQLVQSGAEVKKPGSSVKVSCKASDGKEKREAISWVRQAPGQGLEWMGGIIPFFDKANYAQKFQGRVTITADESTSTAYMELSSLRSEDTAVYYCARDGRKDYYGSGSYLHYYGMDVWGQGTTVTVSS VL: ELVMTQSPLSLPVTPGEPASISCRSSQSLVHSNGYNYLDWYLQRPGQSPQLLIYLGSNRASGVPDRFSGSGSGTDFTLKIGRVEAEDVGIYYCMQAVQTPLTFGGGTKVEIK | binds |
| C-8-2-4B scFv displayed on phage (scFv, V domains shown, also called clone C-8-2-4B) VH: EVQLVQSGAEVKKPGSSVKVSCKASDGKEKREAISWVRQAPGQGLEWMGGIIPFFDKANYAQKFQGRVTITADESTSTAYMELSSLRSEDTAVYYCARDGRKDYYGSGSYLHYYGMDVWGQGTTVTVSS VL: ELVMTQSPLSLPVTPGEPASISCRSSQSLLHSNGYNYLDWYLQRPGQSPQLLIYLGSNRASGVPDRFSGSGSGTDFTLKIGRVEAEDVGIYYCMQALQTPLTFGGGTKVEIK | binds |
